Measured values reported in publication PMC7176406.

Target: tau (residues 149-395) labeled with Alexa Fluor 488 at C291 (human) (UniProt P10636)
Experiment: fluorescence correlation spectroscopy

UniProt P10636, sequence (P10636 466-712 C639S): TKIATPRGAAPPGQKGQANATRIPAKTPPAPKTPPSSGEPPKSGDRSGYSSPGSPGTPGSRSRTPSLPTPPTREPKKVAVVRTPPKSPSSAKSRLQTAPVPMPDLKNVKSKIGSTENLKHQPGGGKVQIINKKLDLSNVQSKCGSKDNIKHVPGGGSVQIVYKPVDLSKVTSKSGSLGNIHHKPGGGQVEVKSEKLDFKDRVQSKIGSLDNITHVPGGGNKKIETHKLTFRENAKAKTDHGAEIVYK

## tailless tubulin (subtilisin-cleaved bovine brain tubulin) (from UniProt Q6B856 1-445) (complex)
  fold weaker affinity than intact tubulin: 5 fold
  maximum increase in diffusion time of tau: 0.15 ms
